Measurements published in patent US20130224202A1.
Positions count from the first letter of the chain named.

B1: scFv clone No. 5, displayed on phage (scFv)
scFv: AQAAELDIVLTQSPAIMSASPGEKVTISCSASSSVSYMYWYQQKPGSSPKPWIYRTSNLASGVPARFSGSGSGTSYSLTISSMEAEDAATYYCQQYHSYPPTFGAGTKLELKSSGGGGSGGGGGGSSRSSLEVKLVESGPELKKPGETVKISCKASGYTFTDYSMHWVNQAPGKGLKWMGWINTETGEPSYADDFKGRFAFSLETSASTAYLQINNLKNEDTATYFCATDYGDYFDYWGQGTTLTVSSAKTTPPSVTSGQAGQ
B2: scFv clone No. 11, displayed on phage (scFv)
scFv: B1 scFv with T11S
B3: scFv clone No. 8, displayed on phage (scFv)
scFv: B1 scFv with T56P, K134H
B4: scFv clone No. 6, displayed on phage (scFv)
scFv: B1 scFv with T56P, L131P, K134M
B5: scFv clone No. 22, displayed on phage (scFv)
scFv: B1 scFv with T56P, G116D, P253A
B6: scFv clone No. 10, displayed on phage (scFv)
scFv: B1 scFv with T11S, S48P, Y231C
B7: scFv clone No. 23, displayed on phage (scFv)
scFv: B1 scFv with T56P, K134Q, P253A
B8: scFv clone No. 4, displayed on phage (scFv)
scFv: AQAAELDIVLTQSPAIMSASPGEKVTISCSASSSVGYMYWYQQKPGSSPKPWIYRPSNLASGVPARFSGSGSGTSYSLTISSMEAEDAATYYCQQYHSYPPTFGAGTKLELKSSGGGGSGGGGGGSSRSSLEVKLVESGPELKKPGETVKISCKASGYTFTDYSMHWVNQAPGKGLKWMGWINTETGEPSYADDFKGRFAFSLETSASTAYLQINNLKNEDTATYFCATDYGDYFDYWGQGTTLTVSSAKTTPPSVTSGQ
B9: scFv clone No. 7, displayed on phage (scFv)
scFv: AQAAELDIVLTQSPAIMSASPGEKVTISCSASSSVSYMYWYQQKPGQPPRLLIYLVSNLESGVPARFSGSGSGTDFTLNIHPVEEEDAATYYCQQYHSYPPTFGAGTKLEIKSSGGGGSGGGGGGSSRSSLEVKLVESGPELKKPGETVKISCKASGYTFTDYSMHWVNQAPGKGLKWMGWINTETGEPSYADDFKGRFAFSLETSASTAYLQINNLKNEDTATYFCATDYGDYFDYWGQGTTLTVSSAKTTPPSVTSGQAGQ
B10: monoclonal antibody produced by Hybridoma Clone 7 (antibody, V domains shown)
VH: EVKLVESGPELKKPGETVKISCKASGYTFTDYSMHWVNQAPGKGLKWMGWINTETGEPSYADDFKGRFAFSLETSASTAYLQINNLKNEDTATYFCATDYGDYFDYWGQGTTLTVSS
VL: DIVLSQSPAIMSASPGEKVTISCSASSSVSYMYWYQQKPGSSPKPWIYRTSNLASGVPARFSGSGSGTSYSLTISSMEAEDAATYYCQQYHSYPPTFGAGTKLELK

Biological target: human prominin-1 expressed in E. coli as a 6*HIS fusion protein (human) (UniProt O43490)
Assay: phage ELISA on plate-coated human prominin-1, HRP-conjugated anti-M13

| Binder | A450 |
| --- | --- |
| B1 | 1.3 A450 |
| B2 | 1.4 A450 |
| B3 | 1 A450 |
| B4 | 1.3 A450 |
| B5 | 1.2 A450 |
| B6 | 1.2 A450 |
| B7 | 1.1 A450 |
| B8 | 1 A450 |
| B9 | 0.9 A450 |

Biological target: human prominin-1 expressed in E. coli as a 6*HIS fusion protein (human) (UniProt O43490)
Assay: ELISA on plate-coated human prominin-1, hybridoma secreted antibody diluted at 1:2000

| Binder | A450 |
| --- | --- |
| B10 | 1.9 A450 |
